Experiments:
Assay in all cases: fluorescence polarisation
[1] = biological target: MBP-TbtD
[2] = biological target: TbtF
[3] = biological target: RRE of TbtF (residues 1–85)

| IC50 [1] | IC50 [2] | Kd [3] | Substance |
| --- | --- | --- | --- |
| 1090 nM | 2750 nM | – | TbtA M(−27)A (peptide) |
| 2660 nM | 850 nM | – | TbtA P(−28)A (peptide) |
| – | – | 100 nM | synthetic TbtA leader peptide derivatized with fluorescein isothiocyanate (FITC) at the N-terminus |

From paper PMC5148741
